# Results as given in IntAct's records for PubMed 29433439.
# B1: Phosphocholine transferase AnkX (Legionella pneumophila subsp. pneumophila), Q5ZXN6 (parent)
# chain: MVKIMPNLPGLYFLQAYPSEEIWRLFVDGRFWSKENGWRGYESREPGCLNAALESLCSIALQVEKSGEEFELSVDLIKRIHKKCGKKVEELQEKNPGELRTDEPVSFGIPAGRASIKGIEEFLSLVFLTEGGAEFGPGKAGPFGPRFDKNYFKNLNPEQIPDLAKQIYFDMCKYGHSNTNHFYLAVMKNVDVYLEKITQSYNKEIKTAETLDEKLKIIVKHIRMYEVLHPFRDANGRTFVNNLLNILLMQQGLPPATFYEPNVFDLYSAEELVVVVKEAIFNTVEIIEQSKRKTPITLYGYHSSLEEQTKFRDMLDSPSYEKIKHMDFSDLNPEKLHLKTQKCLSSLNEQYPLHRGAIYLSDPGEIKLLLSNRNESQINQQIEQGAPPIYVGKTPAHLAVISGNMAMLDELIAKKADLSLQDYDGKTALHYAAECGNMQIMGKILKVVLSQEDAIKVLNIKDNHGKTAFHYAAEFGTPELISALTTTEVIQINEPDNSGSSAITLAYKNHKLKIFDELLNSGADISDELLDAIWARKDKETLGKIIAKNEKILLNKEAFRIAISLGSVSLVKKFLRAGVDIDIPLTKDKATPLMLSINSGNPKLVSYLLKKGANTRLTDTSGNSVLHYVFYSKAENREALANIITEKDKKLINQPNANGNPPLYNAVVVNDLKMATILLEMGARVDFEDRLGNNILHSAMRRCDLPIILDIVKKDSTLLHKRNSERRNPFHQALHEMHTFPSSKETEEIHFMNLSDLLLKEGVDLNKKDIKGKTILDIALSKQYFHLCVKLMKAGAHTNISSPSKFLKNSDANSILERPFKFKNDLKKELDNNPLIAMAQINDLYVQIKNNRIRTPTGYAPKEGVSFFKGKSNDAKAHDEVLSVLKELYDSKLTEMLGNLPGEGLEEIKRSQKFFDGELKLLIKNQDISRKVDKKSIQEAVGTSLKLKW
# partner: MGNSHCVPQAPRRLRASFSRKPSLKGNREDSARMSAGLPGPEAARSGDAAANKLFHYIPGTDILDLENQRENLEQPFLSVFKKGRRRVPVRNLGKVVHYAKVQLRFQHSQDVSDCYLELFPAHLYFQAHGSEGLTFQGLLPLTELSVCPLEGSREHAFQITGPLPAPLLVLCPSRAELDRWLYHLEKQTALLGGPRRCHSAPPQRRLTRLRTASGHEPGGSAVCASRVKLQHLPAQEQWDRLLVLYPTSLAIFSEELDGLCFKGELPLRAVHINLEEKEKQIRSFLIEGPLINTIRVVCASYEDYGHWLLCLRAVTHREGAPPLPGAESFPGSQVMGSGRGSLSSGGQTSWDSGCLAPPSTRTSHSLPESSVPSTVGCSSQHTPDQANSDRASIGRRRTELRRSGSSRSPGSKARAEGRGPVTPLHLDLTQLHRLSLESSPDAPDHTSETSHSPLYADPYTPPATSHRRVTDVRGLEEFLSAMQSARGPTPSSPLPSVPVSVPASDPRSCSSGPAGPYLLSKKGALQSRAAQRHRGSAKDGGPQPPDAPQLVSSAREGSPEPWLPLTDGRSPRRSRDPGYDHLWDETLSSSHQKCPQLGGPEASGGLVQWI
# Variants of: B1
# Settings: with pkhn1_human PLEKHN1, Q494U1
row,Variant,effect of a mutation on the interaction
1,H229A,decreasing interaction
